Data on 1 substance can be found in paper PMC2818353.

In the assay the target is YAP (WW1+WW2) protein fragment, recombinant 104-amino acid polypeptide. In words: ITC. Background: Isothermal titration calorimetry measures the heat released or taken up as one component is titrated into another.

With “Smad1 peptide extended to include S206 and S214 (unphosphorylated) and the PY motif”, the fold increase of the interaction over the Smad1 peptide with only the PY motif was 2.5 fold.
